Publication PMC7807036

Tests used:
[1] = biological target: T1, thrombin (human) (UniProt P00734+P00734); experiment: fibrinogen clotting (light scattering); settings: Clotting: 20 mM Tris, 150 mM NaCl, 5 mM KCl, 1 mM MgCl2, 1 mM CaCl2, pH 7.4, 12 nM thrombin, 25 C, 5 min; AFM binding conditions not given in the material
[2] = biological target: T1, thrombin (human); experiment: AFM; settings: Clotting: 20 mM Tris, 150 mM NaCl, 5 mM KCl, 1 mM MgCl2, 1 mM CaCl2, pH 7.4, 12 nM thrombin, 25 C, 5 min; AFM binding conditions not given in the material

| Substance | binding signal (% inhibition of thrombin) [1] | binding signal (% of origami with bound thrombin) [2] |
| --- | --- | --- |
| Aptarray (rectangular origami, 36 TBA15 + 36 HD22, 5.4 nm) | 98.3 |  |
| origami nanostructure IV (9 TBA15 + 9 HD22, ~5.4 nm) |  | 76 |
